Data as given in US20110256153A1 (IMMUNOGEN, published 2011).

Legend:
hCD37-M1 = target: T1, hCD37-M1 (human/murine chimera, UniProt P11049 1-281); experiment: flow cytometry, 300-19 cells expressing hCD37-M1, 1.5 µg/mL antibody
T1 construct: stably expressed on 300-19 cells; also called hCD37-M1 variant
T1 chain: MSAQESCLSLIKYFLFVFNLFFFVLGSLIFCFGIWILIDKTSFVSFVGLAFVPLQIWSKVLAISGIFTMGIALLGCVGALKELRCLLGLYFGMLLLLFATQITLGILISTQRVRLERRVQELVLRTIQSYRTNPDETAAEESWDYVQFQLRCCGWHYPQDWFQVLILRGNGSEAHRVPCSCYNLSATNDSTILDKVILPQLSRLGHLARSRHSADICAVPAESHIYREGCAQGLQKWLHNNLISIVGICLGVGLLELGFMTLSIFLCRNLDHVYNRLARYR
Experimental: (§1) Binding specificity was tested by flow cytometry using purified antibodies. […] All murine antibodies were incubated for 3 h with either CD37-expressing 300-19 cells or the non-transfected 300-19 cells (1×10⁵ cells per sample) in 100 μL FACS buffer (RPMI-1640 medium supplemented with 2% normal goat serum). Then, the cells were pelleted, washed, and incubated for 1 h with 100 μL of FITC-conjugated goat anti-mouse IgG-antibody (Jackson Laboratory, 6 μg/mL in FACS buffer). The cells were pelleted again, washed with FACS buffer and resuspended in 200 μL of PBS containing 1% formaldehyde. Samples were acquired using a FACSCalibur flow cytometer with the HTS multiwell sampler or a FACS array flow cytometer and analyzed using CellQuest Pro (all from BD Biosciences, San Diego, US).
(§2) Binding of various CD37 antibodies to cells expressing human CD37 wildtype and variants was analyzed by flow cytometry using 1.5 μg/mL of each antibody. The isolated antibodies of this invention were compared to commercially available CD37 antibody WR17, as well as the TRU-016 SMIP. […] Likewise, all antibodies tested bound the hCD37-M3 variant (FIG. 18B). In contrast, the isolated antibodies of this invention bound the hCD37-M1 variant, while TRU-016 and WR17 were unable to bind hCD37-M1 variant (FIG. 19A). The CD37-50 and CD37-51 antibodies and TRU-016 were also able to bind the hCD37-M45 variant. […] In contrast, the CD37-3, CD37-12, CD37-38, CD37-56 and CD37-57 antibodies require at least one of the AA residues in the hCD37-M45 variant that were changed to the corresponding murine AA residues for binding to the CD37 antigen.

human CD37 [1] = target: T2, human CD37 (human, UniProt P11049 1-278); experiment: flow cytometry titration on BJAB cells; apparent Kd
T2 construct: Tetraspanin antigen; Expressed on 300-19 cells transfected with pSRa-CD37 (entire CDS) or endogenous on WSU-DLCL-2, BJAB and Ramos lymphoma cells; also called CD37 antigen; human CD37 wildtype
T2 sequence: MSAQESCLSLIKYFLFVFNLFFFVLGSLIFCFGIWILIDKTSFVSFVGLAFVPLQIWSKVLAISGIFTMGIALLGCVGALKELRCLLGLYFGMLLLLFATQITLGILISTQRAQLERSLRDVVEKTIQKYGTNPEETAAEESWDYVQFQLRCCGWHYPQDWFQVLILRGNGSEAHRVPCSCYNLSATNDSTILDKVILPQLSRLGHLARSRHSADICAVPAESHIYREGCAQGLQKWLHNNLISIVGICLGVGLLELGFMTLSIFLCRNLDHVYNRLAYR
Summary of the method: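 BJAB cells were incubated 3 h with titrated antibody in RPMI-1640 containing 2% goat serum, then 1 h with FITC anti-mouse or anti-human IgG, fixed in 1% formaldehyde and read by flow cytometry. Apparent Kd was derived by non-linear regression of the dose-response curves.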

hCD37-M3 = target: T3, hCD37-M3 (human/murine chimera, UniProt P11049 1-281); experiment: flow cytometry, 300-19 cells expressing hCD37-M3, 1.5 µg/mL antibody
T3 construct: stably expressed on 300-19 cells; also called hCD37-M3 variant
T3 chain: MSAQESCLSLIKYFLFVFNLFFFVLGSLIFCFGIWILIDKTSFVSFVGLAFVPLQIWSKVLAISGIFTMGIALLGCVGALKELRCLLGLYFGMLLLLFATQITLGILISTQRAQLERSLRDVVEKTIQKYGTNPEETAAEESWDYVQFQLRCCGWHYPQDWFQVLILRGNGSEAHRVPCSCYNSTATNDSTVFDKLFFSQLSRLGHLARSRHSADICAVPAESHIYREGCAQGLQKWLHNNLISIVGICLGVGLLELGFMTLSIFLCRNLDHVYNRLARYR
Experimental: as §1, §2

human CD37 [2] = target: T2, human CD37; experiment: flow cytometry titration on WSU-DLCL-2 cells; EC50 taken as apparent Kd
Experimental: as §1
To verify that the antibodies can also bind to endogenously expressed CD37, binding experiments were performed with CD37-positive WSU-DLCL-2 lymphoma cells and the muCD37-3, muCD37-12, muCD37-8, muCD37-10 or muCD37-14 antibodies. WSU-DLCL-2 cells were incubated with varying concentrations of murine antibodies and processed as described above for flow cytometry analysis. Data analysis was performed using CellQuest Pro (BD Biosciences, San Diego, US) and for each sample the mean fluorescence intensity for FL1 (MFI) was exported and plotted against the antibody concentration in a semi-log plot (FIG. 3). […]

binding result (hCD37-M1): binds
Kd (human CD37 [1]): 0.2 nM
binding result (hCD37-M3): binds
Kd (human CD37 [2]): 0.52 nM
B1: muCD37-3 (antibody, mouse IgG2a, kappa)
heavy: QVQVKESGPGLVAPSQSLSITCTVSGFSLTTSGVSWVRQPPGKGLEWLGVIWGDGSTNYHSALKSRLSIKKDHSKSQVFLKLNSLQTDDTATYYCAKGGYSLAHWGQGTLVTVSAAKTTAPSVYPLAPVCGDTTGSSVTLGCLVKGYFPEPVTLTWNSGSLSSGVHTFPAVLQSDLYTLSSSVTVTSSTWPSQSITCNVAHPASSTKVDKKIEPRGPTIKPCPPCKCPAPNLLGGPSVFIFPPKIKDVLMISLSPIVTCVVVDVSEDDPDVQISWFVNNVEVHTAQTQTHREDYNSTLRVVSALPIQHQDWMSGKEFKCKVNNKDLPAPIERTISKPKGSVRAPQVYVLPPPEEEMTKKQVTLTCMVTDFMPEDIYVEWTNNGKTELNYKNTEPVLDSDGSYFMYSKLRVEKKNWVERNSYSCSVVHEGLHNHHTTKSFSRTPGK
light: DIQMTQSPASLSVSVGETVTITCRASENIRSNLAWYQQKQGKSPQLLVNVATNLADGVPSRFSGSGSGTQYSLKINSLQSEDFGTYYCQHYWGTTWTFGGGTKLEIKRADAAPTVSIFPPSSEQLTSGGASVVCFLNNFYPKDINVKWKIDGSERQNGVLNSWTDQDSKDSTYSMSSTLTLTKDEYERHNSYTCEATHKTSTSPIVKSFNRNEC
notes: Murine hybridoma antibody; also called murine CD37-3 antibody; muCD37-3-PE
